Measurements: US20250333484A1 (US Dept. of Health and Human Services, published 2025)

Key:
[1] = target: T1, 676 aa long full-length GP probe (EBOV glycoprotein) (Ebola virus (EBOV), UniProt Q05320 33-676); assay: BLI kinetics on full-length GP with the mAb114 site blocked
T1 sequence: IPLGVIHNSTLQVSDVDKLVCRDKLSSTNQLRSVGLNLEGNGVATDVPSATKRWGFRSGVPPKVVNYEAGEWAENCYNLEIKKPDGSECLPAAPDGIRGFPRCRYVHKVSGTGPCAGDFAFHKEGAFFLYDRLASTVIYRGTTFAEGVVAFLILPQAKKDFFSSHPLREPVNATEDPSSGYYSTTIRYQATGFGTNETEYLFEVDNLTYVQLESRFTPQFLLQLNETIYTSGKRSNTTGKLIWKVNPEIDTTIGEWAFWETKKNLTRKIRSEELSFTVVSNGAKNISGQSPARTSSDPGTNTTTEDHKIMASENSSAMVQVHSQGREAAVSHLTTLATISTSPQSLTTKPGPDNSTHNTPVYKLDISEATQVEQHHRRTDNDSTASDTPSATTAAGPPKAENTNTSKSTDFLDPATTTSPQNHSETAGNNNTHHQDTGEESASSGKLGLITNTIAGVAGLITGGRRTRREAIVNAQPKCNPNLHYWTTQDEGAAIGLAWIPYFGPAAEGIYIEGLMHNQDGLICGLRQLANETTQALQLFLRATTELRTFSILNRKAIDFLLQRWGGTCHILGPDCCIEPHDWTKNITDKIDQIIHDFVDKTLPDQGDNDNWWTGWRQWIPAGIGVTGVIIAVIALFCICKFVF

[2] = target: T1, 676 aa long full-length GP probe (EBOV …)
[3] = target: T1, 676 aa long full-length GP probe (EBOV …); assay: BLI saturation binding, full probe on sensor

B1: FabA09 (Fab of parental mAbA09) (Fab, V domains shown)
VH: QVQLQESGPGLVKPSETLSLTCVVSGGILSSFYWNWIRQPPGKGLEWIGNIYYSGSPNYNASFQSRVAISVDTSKNQISLNLKSVTAADTAMYYCVRASRAYLWGSYRPTALDLWGQGSLVTVSS
VL: SYELTQPPSVSVSPGQTATITCSGDKLGDKYTSWFQQRPGQSPLLVIYQDNKRPSGLPARFSGSNSGNTATLTISGTQAMDEADYLCQVWDSGAVFGGGTKLTVL
Question: With B1 as the binder, how does the “fold on-rate against BiSp107” value [1] read?
Answer: Its value is 3.4 fold.

B2: BiSp107 (mAb114×A09) CrossMab bispecific IgG (bispecific antibody)
heavy 1: not shown
light 1: DIQMTQSPSSLSASVGDRITITCRASQAFDNYVAWYQQRPGKVPKLLISAASALHAGVPSRFSGSGSGTHFTLTISSLQPEDVATYYCQNYNSAPLTFGGGTKVEIKSSASTKGPSVFPLAPSSKSTSGGTAALGCLVKDYFPEPVTVSWNSGALTSGVHTFPAVLQSSGLYSLSSVVTVPSSSLGTQTYICNVNHKPSNTKVDKKVEPKSC
heavy 2: not shown
light 2: SYELTQPPSVSVSPGQTATITCSGDKLGDKYTSWFQQRPGQSPLLVIYQDNKRPSGLPARFSGSNSGNTATLTISGTQAMDEADYLCQVWDSGAVFGGGTKLTVLGQPKAAPSVTLFPPSSEELQANKATLVCLISDFYPGAVTVAWKADSSPVKAGVETTTPSKQSNNKYAASSYLSLTPEQWKSHRSYSCQVTHEGSTVEKTVAPTECS
Question: Which “fold difference in binding kinetics against parental Fab” value [2] does the source give for B2 here?
Answer: The value was ≤ 3 fold.

B3: mAb114 (parental IgG) (antibody, V domains shown)
VH: EVQLVESGGGLIQPGGSLRLSCAASGFALRMYDMHWVRQTIDKRLEWVSAVGPSGDTYYADSVKGRFAVSRENAKNSLSLQMNSLTAGDTAIYYCVRSDRGVAGLFDSWGQGILVTVSS
VL: DIQMTQSPSSLSASVGDRITITCRASQAFDNYVAWYQQRPGKVPKLLISAASALHAGVPSRFSGSGSGTHFTLTISSLQPEDVATYYCQNYNSAPLTFGGGTKVEIKS
Question: How did the “fold binding response at saturation against A09” value [3] turn out when B3 was run?
Answer: The value was 2 fold.
